± gives the standard error. Variants at the floor of the assay were thinned out.

These results are taken from the supplement of paper PMC7125110.

The chains are these.
B1: glmS ribozyme (parent)
chain: AUAAAAGCGCCAGAACUACAGAAAUGUAGUUGACGAGGAGGAGGUUUAUCGAAUUUUCGGCGGAUGCCUCCAAA

Settings in all cases: with glucosamine-6-phosphate
Variants of B1 are the subject of series [1]. The series can be described thus: self-cleavage kobs at 40 uM GlcN6P; higher = faster cleavage; RNA array. In a few lines: (§1)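 Tiles of sequenced MiSeq chips were imaged over ~14 h at 37 °C. On them, barcoded ribozyme variants had been transcribed in situ by E. coli RNA polymerase and were tracked via a hybridised Cy3 probe while glucosamine-6-phosphate (40 μM to 10 mM) in HEPES/KCl/Mg(OAc)2 buffer flowed in. Per-tile medians, normalised to baseline and to non-cleaving reference variants, were fit to one- or two-exponential decays for kobs, and weighted Michaelis–Menten fits gave kcat and KM.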

Series [2] covers variants of B1. Description: self-cleavage kobs at 160 uM GlcN6P; higher = faster cleavage; RNA array. In a few lines: as §1
Series [3] covers variants of B1. Description: self-cleavage kobs at 640 uM GlcN6P; higher = faster cleavage; RNA array. In short, it runs like this:
as §1

Series [4] covers variants of B1. Description: self-cleavage kobs at 2500 uM GlcN6P; higher = faster cleavage; RNA array. In a few lines:
as §1

Variants of B1 are the subject of series [5]. The series can be described thus: self-cleavage kobs at 10000 uM GlcN6P; higher = faster cleavage; RNA array. In a few lines: as §1

As for AUAAAAGCGCCAGAACUACAGAAAUGUAGUUGACGAGGAGGAGGUUUAUCCAAUUUUCGGCGGAUGCCUCCAAA [G51C], the “self-cleavage kobs at 40 uM GlcN6P” value in series [1] is less than 1e-05 s⁻¹. The “self-cleavage kobs at 160 uM GlcN6P” value in series [2] is less than 1e-05 s⁻¹. Moreover, in series [3], the “self-cleavage kobs at 640 uM GlcN6P” value is less than 1e-05 s⁻¹. Also, the “self-cleavage kobs at 2500 uM GlcN6P” value in series [4] is less than 1e-05 s⁻¹. In addition, the “self-cleavage kobs at 10000 uM GlcN6P” value in series [5] is less than 1e-05 s⁻¹.

In the case of AUAAAAGCGCCAGAACUACAGAAAUGUAGUUGACGAGGAGGAGGUUUAUCGAAUCUUCGGCGAAUGCCUCCAAA [U55C G63A], the “self-cleavage kobs at 40 uM GlcN6P” value in series [1] is less than 1e-05 s⁻¹. Further, the “self-cleavage kobs at 160 uM GlcN6P” value in series [2] is less than 1e-05 s⁻¹. In addition, the “self-cleavage kobs at 2500 uM GlcN6P” value in series [4] is less than 1e-05 s⁻¹. Besides, the “self-cleavage kobs at 10000 uM GlcN6P” value in series [5] is less than 1e-05 s⁻¹.

As to AUAAAGGCGCCAUAACUACAGAAAUGUAGUUGACGAGUAUGAGGUUUAUCGAAUUUUCGGCGGAUGCCUCCAAA [A6G G13U G38U G40U], in series [1], the “self-cleavage kobs at 40 uM GlcN6P” value was less than 1e-05 s⁻¹. For the same variant, the “self-cleavage kobs at 10000 uM GlcN6P” value in series [5] was less than 1e-05 s⁻¹.

In the case of AUAAAAACGCCAGAACUACAGAAAUGUAGUUUACGAGGGGGAGGUUUAUCGAAUUUUAGGCGGAUGCCUCCAAA [G7A G32U A39G C58A], the “self-cleavage kobs at 40 uM GlcN6P” value in series [1] was less than 1e-05 s⁻¹. In addition, the “self-cleavage kobs at 10000 uM GlcN6P” value in series [5] was less than 1e-05 s⁻¹.

Take AUAAAAGCGCCAGAACUACAGAAAUGUAGUUGACGAGGAGGAGGUUUAUCGAGUUUCCGGCGUAUGCCUCCAAA [A53G U57C G63U]: in series [1], the “self-cleavage kobs at 40 uM GlcN6P” value is less than 1e-05 s⁻¹. Besides, the “self-cleavage kobs at 10000 uM GlcN6P” value in series [5] was less than 1e-05 s⁻¹.

Regarding AUAAAAGCACUAGAACUACAGAAAUGUAGUUGACGAGGAGGAGGUUUAUCGAAUUUUCGGCGGAUGCCUCCAAA [G9A C11U], the “self-cleavage kobs at 40 uM GlcN6P” value in series [1] was less than 1e-05 s⁻¹. In addition, the “self-cleavage kobs at 160 uM GlcN6P” value in series [2] is less than 1e-05 s⁻¹. In addition, the “self-cleavage kobs at 640 uM GlcN6P” value in series [3] is less than 1e-05 s⁻¹. Further, in series [4], the “self-cleavage kobs at 2500 uM GlcN6P” value is less than 1e-05 s⁻¹. In series [5], the “self-cleavage kobs at 10000 uM GlcN6P” value is less than 1e-05 s⁻¹.

In the case of AUAAAAGCGCCAGAACUACAGAAAUGUAGUUGACGCGGAGGAGGGUUAUCGAAUUUUCGGCGGAUGCCUCCAAA [A36C U45G], in series [1], the “self-cleavage kobs at 40 uM GlcN6P” value is less than 1e-05 s⁻¹. The “self-cleavage kobs at 160 uM GlcN6P” value in series [2] is less than 1e-05 s⁻¹. The “self-cleavage kobs at 640 uM GlcN6P” value in series [3] was less than 1e-05 s⁻¹. The “self-cleavage kobs at 2500 uM GlcN6P” value in series [4] was less than 1e-05 s⁻¹. The “self-cleavage kobs at 10000 uM GlcN6P” value in series [5] was less than 1e-05 s⁻¹.

In the case of AUAAAAGCGCCAGAGCUACAGAAAUGUAGUUGACGAGGAGGAUGUUUAUCGACUUUUCGGCGGAUGCCUCCAAA [A15G G43U A53C], in series [1], the “self-cleavage kobs at 40 uM GlcN6P” value is less than 1e-05 s⁻¹.

For AUAAAAGCGCCAGAACUACAGAAAUGUAGUUGACGAAGAGGAGGUUUAUCAACUUUUCGGCGGAUGCCUCCAAA [G37A G51A A53C], the “self-cleavage kobs at 40 uM GlcN6P” value in series [1] is less than 1e-05 s⁻¹. The “self-cleavage kobs at 10000 uM GlcN6P” value in series [5] is less than 1e-05 s⁻¹.

For AUAAAAGCGCCAGAACUACAGAAAUGUAGUUGACGGGGAGGAGGUUUAUCGAAUUUUCGGAUGAUGACUCCAAA [A36G C61A G62U C67A], the “self-cleavage kobs at 40 uM GlcN6P” value in series [1] is less than 1e-05 s⁻¹.

As for AUAAAAGCGCCAGAACUACAGAAAUGUAGUUGACGAGGAGGAGGUUUAUGGAAUUUUAGGCGGAUGUCUCCAAA [C50G C58A C67U], in series [1], the “self-cleavage kobs at 40 uM GlcN6P” value amounted to 3.98e-05 ± 1.7e-05 s⁻¹. In series [5], the “self-cleavage kobs at 10000 uM GlcN6P” value amounted to 5.82e-05 ± 1.9e-05 s⁻¹.

As for AUAAAAGCGCCAGAACUACAGAAAUGUAGUUGACGAGGAGGAGGUUUAUGGAAUUUUCGGCGGAUGCUUCCAAA [C50G C68U], in series [1], the “self-cleavage kobs at 40 uM GlcN6P” value was 0.000168 ± 2.2e-05 s⁻¹. Further, in series [2], the “self-cleavage kobs at 160 uM GlcN6P” value was 0.000233 ± 4.2e-05 s⁻¹. Also, in series [3], the “self-cleavage kobs at 640 uM GlcN6P” value amounted to 0.00021 ± 2.4e-05 s⁻¹. For the same variant, in series [4], the “self-cleavage kobs at 2500 uM GlcN6P” value is 0.000189 ± 2e-05 s⁻¹. For the same variant, the “self-cleavage kobs at 10000 uM GlcN6P” value in series [5] turned out to be 0.000128 ± 1.3e-05 s⁻¹.
